For 167 variants, self-cleavage results are on record in the RNAGym collection of RNA variant scans (doi:10.7554/elife.90254).

First the molecules themselves.
B1: OR4K15 (parent)
chain: GUUAACGGUCAUAGGCCAUGGAAACUAGGAGCACCAUUUCGCUGCCAGUGAAGAAAUGAACAAAGAAAAUCUGGGCCAGGCAGGCAUCAAAAGAAAUAGUCUUGCGCUCAACCAGAAAGUCUGUAAUCAUUUUAAGGGUA

Variants of B1 are the subject of this data set. The data set is described as follows: self-cleavage, relative activity (ratio to wild type); higher = more cleavage; in vitro, sequencing; the parent is a self-cleaving ribozyme.
With A23U U43C, the self-cleavage was 1.22.

As to A23G A89G, the self-cleavage came to 1.32.

As for A24G C81U, the self-cleavage worked out at 0.64.

Take A24G C81G: the self-cleavage came out at 0.21.

Regarding C25U G136A, the self-cleavage turned out to be 1.84.

On to A24G A27C, for which the self-cleavage worked out at 0.55.

In the case of A24G A27G, the self-cleavage turned out to be 0.97.

Take A24G A69G: the self-cleavage turned out to be 1.31.

Regarding A24C A117G, the self-cleavage came to 0.83.

In the case of A24C A64G, the self-cleavage was 1.74.

In the case of A23G G136A, the self-cleavage came out at 1.39.

In the case of A23G C46U, the self-cleavage was 1.59.

For A24U A116U, the self-cleavage was 0.51.

For A23G U103A, the self-cleavage stood at 0.75.

Turning to A23G G65A, the self-cleavage was 0.71.

For the variant A23G A135G, the self-cleavage stood at 1.13.

For A23G A135U, the self-cleavage worked out at 1.78.

Consider A23G C101U, for which the self-cleavage was 0.35.

In the case of A23G A94G, the self-cleavage was found to be 1.42.

Take A23G A94C: the self-cleavage was 1.14.

On to A23G U72C, for which the self-cleavage stood at 0.3.

On to A24C A96G, for which the self-cleavage stood at 1.72.

On to A23U A140G, for which the self-cleavage came out at 1.38.

Regarding A23U A140C, the self-cleavage stood at 1.37.

A24G A52G: the self-cleavage is 1.44.

Consider U26A A96G, for which the self-cleavage was found to be 1.39.

As for C25U A47G, the self-cleavage amounted to 1.76.

A24G A114G: the self-cleavage was determined as 0.44.

For the variant A24G A114C, the self-cleavage was 0.05.

Consider A24G A116U, for which the self-cleavage was 0.46.

Regarding A23G G41C, the self-cleavage is 1.01.

As to A23G U127C, the self-cleavage amounted to 0.79.

A23G U127G: the self-cleavage was 1.

For the variant C25U A54U, the self-cleavage stood at 1.33.

Take A23U U72A: the self-cleavage worked out at 0.41.

In the case of A24C A27G, the self-cleavage came out at 1.25.

As to U26A A27G, the self-cleavage came to 0.9.

In the case of A24G A111G, the self-cleavage turned out to be 0.03.

Regarding C25U U87C, the self-cleavage came out at 1.11.

On to A23G A114U, for which the self-cleavage was found to be 0.07.

For the variant A23G A114G, the self-cleavage amounted to 0.54.

For the variant A24C U87C, the self-cleavage was found to be 1.44.

For the variant A24C A95U, the self-cleavage was determined as 2.22.

As to A24G U70A, the self-cleavage was found to be 1.17.

For A24G A36C, the self-cleavage was found to be 1.51.

As to A24C A125U, the self-cleavage turned out to be 2.07.

A24G C35U: the self-cleavage amounted to 1.12.

Regarding A24U A90G, the self-cleavage was determined as 1.63.

With A23G C32U, the self-cleavage was determined as 0.82.

Turning to U26A C105A, the self-cleavage came out at 0.02.

For the variant A24G A86C, the self-cleavage is 0.43.

On to A24G A86U, for which the self-cleavage is 1.44.

Turning to A24G A60U, the self-cleavage turned out to be 1.08.

On to A23G A60G, for which the self-cleavage stood at 0.97.

With A24U A118G, the self-cleavage was 0.99.

As for A24U A51U, the self-cleavage came out at 1.61.

Take A24U A51G: the self-cleavage worked out at 1.78.

On to A24G A92G, for which the self-cleavage turned out to be 1.19.

A23G U49C: the self-cleavage turned out to be 0.9.

In the case of A24C A51U, the self-cleavage stood at 1.33.

For the variant A24G U131C, the self-cleavage was determined as 1.17.

A24G U131G: the self-cleavage came out at 1.61.

For A23U C76A, the self-cleavage is 0.23.

Take A24U A110G: the self-cleavage was 0.13.

With C25G A30G, the self-cleavage is 0.59.

Consider A24U A55G, for which the self-cleavage is 1.53.

A24G A89C: the self-cleavage is 1.51.

With A23U U26C, the self-cleavage is 1.23.

Consider A23U A66G, for which the self-cleavage came to 1.16.

Take A24G G104U: the self-cleavage amounted to 0.01.

As for C25U U102A, the self-cleavage amounted to 0.79.

On to A23U A78G, for which the self-cleavage worked out at 0.31.

Take U26A A129G: the self-cleavage was determined as 1.36.

On to A23U U130C, for which the self-cleavage stood at 0.7.

Regarding C25U A86C, the self-cleavage came to 0.72.

Take A23U A47G: the self-cleavage amounted to 0.67.

As for A23U A47U, the self-cleavage worked out at 1.04.

Turning to A24U A33G, the self-cleavage stood at 1.14.

As for A24G G74A, the self-cleavage was 0.31.

For A24G G84C, the self-cleavage was determined as 0.53.

For A24G U139G, the self-cleavage worked out at 1.86.

A24G U139A: the self-cleavage was 1.53.

Take A24G U139C: the self-cleavage was 0.99.

On to A24G A94G, for which the self-cleavage turned out to be 1.47.

In the case of A23U A67G, the self-cleavage was determined as 1.73.

As for A24U U100C, the self-cleavage was determined as 2.08.

As to A24U U43A, the self-cleavage was found to be 1.68.

Turning to A23G A92G, the self-cleavage amounted to 1.17.

Take A24G G65U: the self-cleavage was 1.3.

Turning to A23U U102A, the self-cleavage came out at 1.09.

In the case of A23U A118G, the self-cleavage was determined as 0.66.

As to A23G A116G, the self-cleavage is 0.47.

Turning to A24U G123A, the self-cleavage was 1.3.

Regarding A23G A96U, the self-cleavage worked out at 1.17.

With A23G A67G, the self-cleavage came out at 1.11.

A24G C109A: the self-cleavage stood at 0.3.

In the case of A24G C109U, the self-cleavage was determined as 0.46.

As for C25U A67G, the self-cleavage was determined as 1.55.

With A23U A60G, the self-cleavage was 1.24.

For the variant A23G U124A, the self-cleavage came out at 0.25.

Consider A23G U124C, for which the self-cleavage was 0.69.

In the case of A23G G48A, the self-cleavage turned out to be 1.29.

Turning to A23G G48U, the self-cleavage was 0.73.

U26A G44C: the self-cleavage is 0.71.

Consider C25U A129G, for which the self-cleavage is 1.37.

For the variant A24U A66G, the self-cleavage worked out at 1.66.

In the case of U26A C81U, the self-cleavage turned out to be 0.19.

For the variant A23G A69G, the self-cleavage amounted to 0.91.

Consider A23U A96G, for which the self-cleavage came out at 1.59.

As for A24C A30U, the self-cleavage came to 0.99.

A24U A91G: the self-cleavage worked out at 1.09.

Regarding A23G G50A, the self-cleavage stood at 1.9.

For A23G G50U, the self-cleavage amounted to 0.79.

As for A24C U37C, the self-cleavage was found to be 1.29.

With A23U A51C, the self-cleavage was found to be 1.55.

A24G U124C: the self-cleavage came out at 0.73.

On to A24G U124A, for which the self-cleavage was 0.74.

On to C25G A118G, for which the self-cleavage was determined as 0.35.

Turning to A24G A51C, the self-cleavage was 0.87.

As to C25U U131C, the self-cleavage turned out to be 1.57.

With C25U A59G, the self-cleavage is 1.24.

For A23U U49A, the self-cleavage worked out at 1.2.

Take A23U U49C: the self-cleavage is 1.55.

A23G U122C: the self-cleavage amounted to 0.84.

As for A24C U103C, the self-cleavage came to 1.38.

A24G G29U: the self-cleavage turned out to be 1.2.

As to A24C A56G, the self-cleavage was found to be 2.01.

In the case of U26A A59U, the self-cleavage came out at 1.22.

As to A24G A91G, the self-cleavage is 0.65.

Turning to C25G A59G, the self-cleavage is 0.57.

Take A23U U131C: the self-cleavage was found to be 1.02.

In the case of U26A A51G, the self-cleavage was found to be 1.15.

With A23U U103C, the self-cleavage was 0.03.

A23U A111G: the self-cleavage amounted to 0.04.

With U26A A69G, the self-cleavage was determined as 1.5.

With A24G A82G, the self-cleavage is 0.67.

Regarding A24G A82C, the self-cleavage is 0.25.

Regarding A24G A95G, the self-cleavage is 1.71.

Regarding A24U A27U, the self-cleavage turned out to be 1.14.

A23G A86U: the self-cleavage worked out at 1.25.

As for A23G A86G, the self-cleavage is 0.99.

Turning to A24U C128A, the self-cleavage is 1.85.

As for A23G U39C, the self-cleavage turned out to be 1.54.

With A24G A64G, the self-cleavage was determined as 1.01.

For A24C U122C, the self-cleavage was 1.49.

Take A23U G41C: the self-cleavage was determined as 2.09.

In the case of C25G A27U, the self-cleavage is 1.45.

As to A23U U108C, the self-cleavage stood at 0.01.

On to C25U A110U, for which the self-cleavage was 0.57.

For the variant A24U A36C, the self-cleavage came to 1.63.

As for A24G U72G, the self-cleavage came out at 0.26.

Turning to A24G U72A, the self-cleavage came out at 0.28.

Regarding A24G A90C, the self-cleavage is 0.33.

Turning to A24G A90U, the self-cleavage worked out at 1.65.

With U26A A114G, the self-cleavage was 0.2.

On to A23G A134G, for which the self-cleavage is 0.76.

Consider A23G A134U, for which the self-cleavage came to 0.77.

With A24U A135U, the self-cleavage was 0.83.

On to A24U U132C, for which the self-cleavage was 2.18.

As for A24U A78C, the self-cleavage stood at 0.29.

For the variant A24G A56C, the self-cleavage amounted to 1.02.

On to A24G A56U, for which the self-cleavage worked out at 0.97.

With A24G A56G, the self-cleavage was 1.25.

As for A24C A55G, the self-cleavage was found to be 1.52.

For the variant A23G C113U, the self-cleavage was determined as 0.05.

As to A23U A33U, the self-cleavage was found to be 1.17.

In the case of A24C A111G, the self-cleavage came out at 0.01.
